The target in this assay is HIV-1 Gag Pr55 (wild-type) (HIV-1, UniProt P03348 1-512, N-terminal myristoylation (reactions with MCoA)). Kind of assay: cell-based or functional assay.

B1: WGHP68-Tr1 (other)
chain: MADRLTRIAIVSEDKCKPKKCRQECKKSCPVVKTGKLCIEVSPVAKLAFISEELCIGCGICVKKCPFDAIEIINLPKDLEKDTTHRYGPNTFKLHRLPVPRPGQVLGLVGTNGIGKSTALKVLAGKLKPNLGRFKNPPDWQEILTYFRGSELQNYFTRILEDNLKAIIKPQYVDHIPKAVQGNVGQVLEQKDERDMKNELCVDLELNQVIDRNVGDLSGGELQRFAIAVVAVQSAEIYMFDEPSSYLDVKQRLKAARVIRSLLRSNSYVIVVEHDLSVLDYLSDFICCLYGKPGAYGVVTLPFSVREGINIFLAGFVPTENLRFRDESLTFKIAETQESAEEVATYQRYKYPTMSKTQGNFKLSVVEGEFTDSQIVVM
As to B1, the “amount of HIV-1 Gag protein in the medium of co-transfected Cos-1 cells (virion production)” value was 4.7 fold.

These data come from patent US20030153066A1 (University of California, published 2003).
